B1: C2655 (antibody, V domains shown)
VH: QVQLVQSGAEVKKPGSSVKVSCKASGGTFNSYAISWVRQAPGQGLEWMGGIIHVLGTANYAQRFQGRVTITADESTSTVYMELSSLRSEDTAVYYCARVGAPLGRADSGYDFYYYGMDVWGQGTTVTVSS
VL: not shown
notes: source: 293-6E cells, transfected, purified (Protein G Sepharose)
B2: C3102 (antibody, V domains shown)
VH: QVQLVQSGAEVKKPGSSVKVSCKASGGTFRRYAISWVRQAPGQGLEWMGGIIPIAGAADYAQKFQARVTITADESTSTAYLELSSLRSEDTAVYYCAREISYCSGAPCYAGYYDYGMDVWGQGTTVTVSS
VL: QSVLTQPPSASGTPGQRVTISCSGNSSNIGSNSVNWYQQLPGTAPKLLIKSTNQRPSGVPDRFSGSKSGTSASLAISGLQSEDEADYYCAAWEDVLNAVVFGGGTMLTV
notes: as for B1
B3: B1032 (antibody, V domains shown)
VH: EVQLVESGGGLVQPGRSLRLSCEASGFTFEDFAMHWVRQAPGKGLEWVSGVSWNSGTIGYGDSVKGRFIIIRDNAKNSVYLQMNSLRPEDTAFYYCVKDMATYYKDISGTYGMDVWGQGTTVTVSS
VL: SYELTQTPSVSVAPGQTARITCVGNNIGSESVHWYQQKSGRAPVLVVYDDSDRPSGIPERFSGSTSGTTATLIINRVEAGDEAGYYCQVWDASSDHVVFGGGTKLTVL
notes: as for B1
B4: C3055 (antibody, V domains shown)
VH: QVQLVQSGAEVKKPGSSVNVSCRASGGTFSSKTISWVRQAPGQGLEWMGKIFPILGVANYAQKFQGRVTITADRSTNTAYMELNSLRSEDTAIYYCATEEGYSSSRSLPAEYFRQWGQGTLVTVSS
VL: QSVLTQPPSVSGAPGQRVTISCTGSNSNIGAGYDVHWYQQLPGTAPKLLIYANTNRPSGVPDRFSGSKSGTSASLAITGLQAEDEADYYCQSYDSGLSGSLFGGGTKLTVL
notes: as for B1
B5: B1026 (antibody, V domains shown)
VH: QMQLVQSGPEIKKPGTSVKVSCKASGFTFSNSAVQWVRQARGQRLEWIGWIVVGSGDPNYAQKFQERVTLTRDMSTSTAYMELSSLRSEDTAVYYCATNHCSRTICSDGFDIWGQGTVVTVSS
VL: EIVLTQSPVSLSLSPGERATLSCRASQTVRSSYFVWYQQKLGQAPRLLIYSASSRAAGIPDRFSGSGSGTDFTLTISRLEPEDFAVYYCQQYGSSPWTFGQGTKVEIK
notes: as for B1
B6: C3095 (antibody, V domains shown)
VH: EVQLVETGGGLIQPGGSLRLSCAASEFIVSANYMHWVRQAPGQGLEWVSVIYAGGSTFYADSVKGRFTISRDNSKNSLYLQMNSLRAEDTAVYYCARGLGDYFDFWGQGTLVTVSS
VL: DIQMTQSPSTLSASVGDRVTITCRASQSFSDWLAWYQQKPGSAPKLLIYRASSLESGVPSRFSGSGSGTEFTLTISSLQPDDFATYYCQQYNTYPLTFGGGTKVEIK
notes: as for B1
B7: B2058 (antibody, V domains shown)
VH: EVQLVESGGGLIQPGGSLRLSCAASGLTVSSNYMSWVRQAPGKGLEWVSVIYPGGSTFYADSVKGRFTISRDNSKNTLYLQLNSLRADDTAVYFCARGDGYTDYYYGLDVWGQGTTVTVSS
VL: DIQLTQSPSSLSASVGDRVTITCRASQSISSYLNWYQQKPGKAPKLLIYAASSLQSGVPSRFSGSGSGTDFTLTISSLQPEDFATYYCQQRGFGQGTKVEIK
notes: as for B1
B8: B2064 (antibody, V domains shown)
VH: QVQLVQSGAEVKKPGSSVNVSCKASGGTLNIYTFSWVRQAPGQGLEWVGTIVPLVGKANYPHKFQGRVTITADKSTSTVNMELSSLRSEDTAVYYCASEVLDNLRDGYNFWGQGTLVTVSS
VL: DIQMTQSPSSLSASVGDRVTITCRASQSVSSYLNWYQQKPGKAPKLLIYAVSSLQSGVPSRFSGSGSGTDFTLTISSLQPEDFATYYCQQTYNTLTFGGGTKVEIK
notes: as for B1
B9: C2488 (antibody, V domains shown)
VH: QVQLVESGGGVVQPGRSLRLSCAASGFTFSTHGMHWVRQAPGKGLEWMAVIYFDGSNKYYADSVKGRFAISRDNSKNTLFLQMNSLRADDTAVYHCATNSAGYGDSYETFDIWGQGTMVSVSS
VL: EIVMTQSPATLSVSPGERATLSCRASHSVGTNLAWYQQKPGQAPRLLIYGAFTRAAGISARFSGSGSGTEFTLTISSLQSEDLAVYYCQQYENWPPYTFGQGTKLEIK
notes: as for B1
B10: C2606 (antibody, V domains shown)
VH: QVQLVQSGAEVKKPGSSVKVSCKASGDTFRSYAISWVRQAPGQGLEWMGRIIPMLGITTYEQKYQGRLKIIADKSTSTAYMELSSLRSEDTAVYFCARDGVGATEPYYYDYWGQGTLVTVSS
VL: QSVLTQPASVSGSPGQSIIISCTGTSSDVGKYDFVSWYQQHPGKAPKLMIYDVSKRPSGVSDRFSGSKSGNTASLTISGLQAEDEADYHCASYTSDSSYLVFGGGTKLTVL
notes: as for B1
B11: B2006 (antibody, V domains shown)
VH: EVQLVQSGAEVKKPGESLKISCKGFGSSFTNYWIGWVRQMPGKGLEWMGSVYAGDSDTRYSPSFQGQVTVSADKSITTAYLQWTSLKASDTAMYFCARASQGNYFDFWGQGTLVTVSS
VL: DIQMTQSPSTLSASVGDRVTITCRASQSISRWLAWYQQKPGKAPKLLIYDASILESGVPSRFSGSGSGTDFTLTISSLQPDDYATYYCQQFYSNLYTFGQGTKLEIK
notes: as for B1
B12: B1037 (antibody, V domains shown)
VH: QVQLVQSGAEVKKPGSSVKVSCKASGDTFISYAITWVRQAPGQGLEWMGRIIPILGVADYAPKFQGRVTITADKSTSTAYMELSSLRSEDTAVFYCASWRGREYNGYDWTGPTRGFDSWGQGTLVTVSS
VL: not shown
notes: as for B1
B13: B1011 (antibody, V domains shown)
VH: QVQLVQSGAEVKKPGASVKVSCKASGYTFISYYTHWVRQAPGQGLEWMGIINPSDGYTSYAQKFQGRVTMTRDTSASTVYMELSSLRSEDTAVYYCARDSSIAARVVAWGQGTLVTVSS
VL: DIQMTQSPSSLSASVGDRVTITCQASQDIYNYLNWYQQKPGKAPKLLIFDAINLETGVPSRFSGSGSGTDFTFTISSLQPEDIATYYCQQHDNLPYSFGQGTKLEIK
notes: as for B1
B14: B1012 (antibody, V domains shown)
VH: B13 VH
VL: B13 VL with Y30G, I52S, T56A, G64A, T74A, T85A, N93D, K103T
notes: as for B1
B15: B1034 (antibody, V domains shown)
VH: B13 VH with A9S, Y27N, S31T, I50V, N52K, S59N, R87T, E89D, A108D
VL: B13 VL with F73L
notes: as for B1
B16: B1002 (antibody, V domains shown)
VH: QVQLVQSGAEVKKPGSSVKVTCRASGGTFSNLAISWVRQAPGQGLEWMGSIIPMFTISNYAQKLKGRVTITADKSTSTAYMELSSLRSGDTAVYFCASLGSNITVVRGAPITDHHFHYWGQGTLVTVSS
VL: QSALTQPASVSGSPGQSVTISCTGTSSDVGTYNLVSWYQQHPGKAPKLMIYEVSKRPSGVSNRFSGSKSGNTASLTISGLQAEDEADYYCCSYAASSTTHWVFGGGTKLAV
notes: as for B1
B17: B2014 (antibody, V domains shown)
VH: QVQLVQSGAELKRPGASVKVSCKASGYTFSDYHMNWVRQAPGQGLEWMGIINPSGGGASYPQKFQGRVTMTRDTSTSTVFMQLNSLTYEDTAVYYCARGTPPSRGWYGGFDNWGQGTLVTVSS
VL: QSVLTQPPSVSGAPGQRITISCTGSTSNIGAGYDVQWYQQLPGTAPKLLIFDNNNRPSGVPDRFSGSKSGTSASLAITGLQAEDEADYYCQSFDSTLSGSTFVFGPGTKVTVL
notes: as for B1
B18: C3108 (antibody, V domains shown)
VH: QVQLQESGPGLVKPSQTLSLTCTVSGGSISSGGYYWNWIRQSPVKGLEWIGYIYYSGGTYYNPSLRSRLTISLDTSNNQFSLRLNSVTAADTAIYYCARDQGAITFGTDAFEIWGQGTMVTVSS
VL: DIQMTQSPSSLSASVGDRVTITCQASQDISKYLNWYQQKPGKAPKLLIYGASTLKAGVPSRFSGSGSGTDFTFTISSLQPEDIATYYCQQYDSLPPTFGGGTKVEIK
notes: as for B1
B19: B1030 (antibody, V domains shown)
VH: QVQLVQSGAEVKKPGASVRVSCKASGYTFTSYYMHWVRQAPGQGLEWMGIINPSDGGASYAQKFQGRVTMTSDTSTSTVYMELSSLRSEDTAVYYCARALRHHSSGWYSALDFQHWGQGTLVTVSS
VL: not shown
notes: as for B1
B20: C1034 (antibody, V domains shown)
VH: QLQLQESGPGLVKPSETLSLTCTVSGGSVSSNNHYWGWIRQPPGKGLEWIGSISSSGSTHHNPSLRSRVTISVDTSKNHFSLKLNSVTATDTAVYYCARVDSSGWYTGDVFDVWGQGTMVTVSS
VL: DIQMTQSPSSLSASVGDRVTITCRASQTINNYLNWYQQKPGKPPKLLIYAAFSLHSGVPSRFSGSRSGTDFTLTISSLQPEDFATYYCQHSYSTMCSFGQGTKLEIK
notes: as for B1

The Kd is the concentration at which binding is half-saturated. Read a high Kd as weaker binding.

Substitutions are numbered along the chain they refer to.

The experiment has as its target WT RBD (SARS-CoV-2 Wuhan-Hu-1 spike receptor binding domain) (SARS-CoV-2 (Wuhan-Hu-1), UniProt P0DTC2). Briefly: BLI. As to conditions: both partners purified.
In the case of B1, the Kd was 1.34 nM.
B2 yielded a dissociation constant Kd of 0.639 nM.
B3 came in with a Kd of 0.52 nM.
Under B4 stands 0.592 nM; under B5, 12 nM.
Molecule B6 displayed a Kd of 0.00158 nM.
The molecule B7 showed a Kd of 1.02 nM.
As for B8, binding was put at a Kd of 0.866 nM.
Turning to B9, binding was put at a Kd of 8.95 nM.
B10 yielded a Kd of 0.743 nM.
B11 gave a Kd of 0.582 nM.
Molecule B12 registered a Kd of 3.21 nM.
The result for B13 reads 0.893 nM.
The molecule B14 had a Kd of 0.572 nM.
The molecule B15 came in with a Kd of 0.734 nM.
In the case of B16, binding was characterised by a dissociation constant (Kd) of 0.732 nM.
B17 returned a Kd of 1.24 nM.
For B18, the Kd was found to be 0.96 nM.
Consider B19, for which binding was characterised by a dissociation constant (Kd) of 5.06 nM.
Consider B20, for which the Kd was found to be 1.98 nM.

For the origin of these results see paper PMC9849103 (Nature Communications, 2023).
